Changes are numbered by the printed parent chain.
B1: 148 (protein)
chain: MAQGKEALEEHFAIPETLNDSAGFVPGDYWKELQHRLLDIQDTRLKLMDAHQIETMILSLAAVGVQAIPDRRKAIEIARRANDMLAEECAKRPDRFLAFAALPLQDVDAASEELQRTVNTLGFVGALVNGFSVEGDGQTPLYYDLPQYRPFWGEVEKLDVPFYLHPRNPLPQDSRIYDGHPWLLGPTWAFAQETAVHALRLMASGLFDEHPRLNIILGHLGEGLPYMMYRIDHRIAWVKLPPRYPAKRRFMDYFNENFHITTSGNFRTQTLIDAILEIGADRILFSTDWPFENIDHAAAWFNATSIAEADRVKIGRTNARRLFKLDGA
modifications: Dicamba decarboxylase variant
B2: 138 (protein)
chain: MAQGKVALEEHFAIPETLQDSAGFVPGDYWKELQHRLLDIQDTRLKLMDAHGIETMILSLAAPAVQAIPDRRKAIEIARRANDFLAEECAKRPDRFLAFAALPLQDPDAATEELQRCVNDLGFVGALVNGFSQEGDGQTPLYYDLPQYRPFWGEVEKLDVPFYLHPRNPLPQDSRIYDGHPWLLGPTWAFAQETAVHALRLMASGLFDEHPRLNIILGHMGEGLPYMMYRIDHRIAWVHEPPRYPAKRRFMDYFNENFHITTSGNFRTQTLIDAILEIGADRILFSTDWPFENIDHAADWFNATSIAEADRLKIGRTNARRLFKLDLD
modifications: Dicamba decarboxylase variant
B3: 163 (protein)
chain: B2 chain with G27C, D28E, L104M, D120N, Q133V, H239Q, L312V, L327G
modifications: Dicamba decarboxylase variant
B4: 161 (protein)
chain: B2 chain with Q133V, H239K, E240L, A298T, D299A, L312V, L327G
modifications: Dicamba decarboxylase variant
B5: 144 (protein)
chain: B2 chain with K46R, T111S, L327G
modifications: Dicamba decarboxylase variant
B6: 154 (protein)
chain: B2 chain with R72H, C117T, L312V, L327G
modifications: Dicamba decarboxylase variant
B7: 142 (protein)
chain: B2 chain with C117T, M220L, L312V
modifications: Dicamba decarboxylase variant
B8: 139 (protein)
chain: B2 chain with H239K, E240L, L327G
modifications: Dicamba decarboxylase variant
B9: 143 (protein)
chain: B2 chain with G27S, D28E, W30L, L104M, P107V, Q133V, L312V, L327G
modifications: Dicamba decarboxylase variant
B10: 158 (protein)
chain: B2 chain with Q19N, H239K, E240L, A298T, D299A, L312V, L327G, D328A
modifications: Dicamba decarboxylase variant
B11: 162 (protein)
chain: B1 chain with E6V, N19Q, Q52G, V63P, G64A, M84F, L104M, S111T, T117C, A299D
modifications: Dicamba decarboxylase variant
B12: 160 (protein)
chain: B2 chain with D120T, H239K, E240L, L312V, L327G
modifications: Dicamba decarboxylase variant
B13: 156 (protein)
chain: B2 chain with G27S, W30L, L104M, Q133V, M220L, L327G, D328A
modifications: Dicamba decarboxylase variant
B14: 146 (protein)
chain: B2 chain with H239K, E240L, L312V, L327G
modifications: Dicamba decarboxylase variant
B15: 167 (protein)
chain: B2 chain with F84M, Q133V, M220L, L312V, L327G
modifications: Dicamba decarboxylase variant
B16: 152 (protein)
chain: B2 chain with Q133V, H239K, E240L, L312V, L327G, D328A
modifications: Dicamba decarboxylase variant
B17: 149 (protein)
chain: B2 chain with G27S, D28E, W30L, F84M, D120T, Q133V, M220L, L312V, L327G
modifications: Dicamba decarboxylase variant
B18: 155 (protein)
chain: B2 chain with Q133V, M220L, L327G, D328A
modifications: Dicamba decarboxylase variant
B19: 159 (protein)
chain: B2 chain with Q133V, M220L, H239K, E240L, L312V, L327G, D328A
modifications: Dicamba decarboxylase variant
B20: 150 (protein)
chain: B2 chain with C117T, H239K, E240L, L312V, L327G
modifications: Dicamba decarboxylase variant
B21: 165 (protein)
chain: B2 chain with L312V, R320H, L327G, D328A
modifications: Dicamba decarboxylase variant
B22: 147 (protein)
chain: B2 chain with L104M, P107V, H239K, E240L
modifications: Dicamba decarboxylase variant
B23: 168 (protein)
chain: B2 chain with D120T, M220L, L312V
modifications: Dicamba decarboxylase variant
B24: 169 (protein)
chain: B2 chain with G52Q, L312V, L327G
modifications: Dicamba decarboxylase variant
B25: 145 (protein)
chain: B2 chain with Q133V, H239K, E240L, A298T, L312V, L327G, D328A
modifications: Dicamba decarboxylase variant
B26: 164 (protein)
chain: B2 chain with A64G, F84I, M220L, L312V, L327G
modifications: Dicamba decarboxylase variant
B27: 140 (protein)
chain: B2 chain with M220L, L312V, L327G, D328A
modifications: Dicamba decarboxylase variant
B28: 141 (protein)
chain: B2 chain with Q19N, F84M, L312V
modifications: Dicamba decarboxylase variant
B29: 166 (protein)
chain: B2 chain with D120N, L312V, L327G, D328A
modifications: Dicamba decarboxylase variant
B30: 151 (protein)
chain: B2 chain with E240Q, L312V, L327G
modifications: Dicamba decarboxylase variant
B31: 157 (protein)
chain: B2 chain with D108A, Q133V, L327G
modifications: Dicamba decarboxylase variant
B32: 153 (protein)
chain: B2 chain with G27S, D28E, W30L, P107V, Q133V, M220L, H239K, E240L, L327G
modifications: Dicamba decarboxylase variant

Legend:
[1] = DNA shuffling libraries: 14CO2 capturing assay in 384-well format, fold activity of backbone (Megatable 2); conditions: relative to backbone SEQ ID NO: 133 (DDEC0201)
[2] = Saturation mutagenesis of SEQ ID NO:109: dicamba decarboxylation activity of point mutants (CO2 released), fold of backbone (Tables 7, 8, Megatable 1); conditions: decarboxylation activity (CO2 released) of point mutant vs unmutated backbone protein; backbone SEQ ID NO: 109

Row | Molecule | Fold Activity [1] [fold] | Fold Activity [2] [fold]
1 | B1 | 0.8 | 1.5
2 | B2 | 1.1 | 0.7
3 | B3 | 1.3 | 1.5
4 | B4 | 1.1 | 1.5
5 | B5 | 1.2 | 1.2
6 | B6 | 1.3 | 1.3
7 | B7 | 1.4 | 1
8 | B8 | 1.1 | 1.4
9 | B9 | 1.3 | 1.2
10 | B10 | 1.0 | 1.6
11 | B11 | 1.0 | 1.4
12 | B12 | 1.1 | 1.7
13 | B13 | 1.5 | 1.5
14 | B14 | 1.2 | 1.3
15 | B15 | 1.1 | 1.4
16 | B16 | 1.1 | 1.8

Row | Molecule | Fold Activity [1] [fold] | Fold Activity [2] [fold]
17 | B17 | 1.1 | 1.6
18 | B18 | 1.2 | 1.5
19 | B19 | 1.0 | 1.5
20 | B20 | 1.1 | 1.4
21 | B21 | 1.1 | 1.7
22 | B22 | 0.8 | 1.3
23 | B23 | 1.1 | 1.3
24 | B24 | 1.0 | 1.5
25 | B25 | 1.1 | 1.2
26 | B26 | 0.9 | 1.5
27 | B27 | 1.1 | 1.1
28 | B28 | 0.9 | 1.1
29 | B29 | 1.0 | 1.8
30 | B30 | 1.0 | 1.9
31 | B31 | 1.2 | 1.4
32 | B32 | 1.8 | 1.7

From patent publication US20160040149A1, “Compositions Having Dicamba Decarboxylase Activity and Methods of Use” (priority 2013, published 2016)
